# Measurements taken from publication PMC6791870, “Switch of the interactions between the ribosomal stalk and EF1A in the GTP- and GDP-bound conformations” (Scientific Reports, 2019).
# Residue numbers refer to the chain shown, from its start. Primed or numbered codes have the meaning given here. Where no end group is shown, it is not given here. FITC′ = fluorescein isothiocyanate label
# T1: PhoEF1A Q326A•GTP•PfuPelota complex (Pyrococcus horikoshii | Pyrococcus …, UniProt O59153 1-428, Q326A)
# T1 construct: elongation factor aEF1A of Pyrococcus horikoshii (PhoEF1A); complex of the EF1A mutant, GTP and PfuPelota; also called Q326(R329)A; P. horikoshii aEF1A-Q326A
# T1 sequence 1: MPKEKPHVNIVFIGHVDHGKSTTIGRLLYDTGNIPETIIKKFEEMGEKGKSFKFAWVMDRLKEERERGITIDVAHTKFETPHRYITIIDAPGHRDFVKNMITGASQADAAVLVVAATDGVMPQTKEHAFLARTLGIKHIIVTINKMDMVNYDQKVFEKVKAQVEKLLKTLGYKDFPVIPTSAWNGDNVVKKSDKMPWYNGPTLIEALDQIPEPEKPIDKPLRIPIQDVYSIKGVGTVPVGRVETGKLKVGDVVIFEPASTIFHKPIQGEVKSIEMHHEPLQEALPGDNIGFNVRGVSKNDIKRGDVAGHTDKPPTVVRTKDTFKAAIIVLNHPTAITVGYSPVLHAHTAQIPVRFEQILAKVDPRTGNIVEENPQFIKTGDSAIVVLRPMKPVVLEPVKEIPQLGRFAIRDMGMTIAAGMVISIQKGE
# T1 sequence 2: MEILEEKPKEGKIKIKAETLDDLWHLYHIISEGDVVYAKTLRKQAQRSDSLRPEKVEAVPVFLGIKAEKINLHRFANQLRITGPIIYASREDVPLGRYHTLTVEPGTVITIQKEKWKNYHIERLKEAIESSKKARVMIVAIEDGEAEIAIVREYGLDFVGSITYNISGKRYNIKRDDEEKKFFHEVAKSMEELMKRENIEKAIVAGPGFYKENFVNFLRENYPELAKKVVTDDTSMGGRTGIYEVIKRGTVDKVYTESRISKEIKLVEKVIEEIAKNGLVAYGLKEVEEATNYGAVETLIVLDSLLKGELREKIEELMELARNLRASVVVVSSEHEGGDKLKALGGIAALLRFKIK
# T2: PhoEF1A R406A•GTP•PfuPelota complex (Pyrococcus horikoshii | Pyrococcus …, UniProt O59153 1-428, R406A)
# T2 construct: elongation factor aEF1A of Pyrococcus horikoshii (PhoEF1A); complex of the EF1A mutant, GTP and PfuPelota; also called R406(R409)A; P. horikoshii aEF1A-R406A
# T2 sequence 1: T1 sequence 1 with A326Q, R406A
# T2 sequence 2: T1 sequence 2
# T3: PhoEF1A M420S•GTP•PfuPelota complex (Pyrococcus horikoshii | Pyrococcus …, UniProt O59153 1-428, M420S)
# T3 construct: elongation factor aEF1A of Pyrococcus horikoshii (PhoEF1A); complex of the EF1A mutant, GTP and PfuPelota; also called M420(I423)S; P. horikoshii aEF1A-M420S
# T3 sequence 1: T1 sequence 1 with A326Q, M420S
# T3 sequence 2: T1 sequence 2
# B1: FITC-labeled C-terminal 14-mer peptide of P. horikoshii aP1 (PhoP1C14) (peptide)
# peptide: {FITC′}-SEEEALAGLSALFG
# notes: also called FITC-labeled peptide of PhoP1C14; source: synthetic peptide (Hokkaido System Science Co., Ltd)
# What was measured:
# Test in all cases: fluorescence polarisation; FITC-labeled PhoP1C14 peptide (50 nM) mixed with 0-160 µM of the complex of each PhoEF1A mutant, GTP and PfuPelota; 20 mM HEPES-KOH pH 7.6, 10 mM MgCl2, 150 mM KCl, 0.1 mg/ml BSA; 25 °C; nonlinear regression, one site specific binding (GraphPad Prism 6); average of three replicates
# Conditions in all cases: both partners purified
# [1] = molecular target: T1, PhoEF1A Q326A•GTP•PfuPelota complex
# [2] = molecular target: T2, PhoEF1A R406A•GTP•PfuPelota complex
# [3] = molecular target: T3, PhoEF1A M420S•GTP•PfuPelota complex
binder,measurement,setting,value
B1,Kd,[1],11.1 ± 0.8 µM
same,Kd,[2],33 ± 2.1 µM
same,Kd,[3],80.1 ± 8.7 µM
